In FireProtDB (doi:10.1074/jbc.m304177200):

B1: Guanyl-specific ribonuclease Sa, P05798 (parent)
chain: DVSGTVCLSALPPEATDTLNLIASDGPFPYSQDGVVFQNRESVLPTQSYGYYHEYTVITPGARTRGTRRIITGEATQEDYYTGDHYATFSLIDQTC

Variants of: B1
Settings: Kitasatospora aureofaciens, pH 7, Thermal, CD, MOPS 30 mM, reversible: yes(>95%), structure 1RGG, whole UniProt chain shown; for ddG of mutation (higher = less stable): 48.4 °C

| Variant | ddG of mutation (higher = less stable) | Tm | change of melting temperature, mutant - wild type (higher = more stable) | unfolding enthalpy (van 't Hoff) |
| --- | --- | --- | --- | --- |
| DVSGVVCLSALPPEATDTLNLIASDGPFPYSQDGVVFQNRESVLPTQSYGYYHEYTVITPGARTRGTRRIITGEATQEDYYTGDHYATFSLIDQTC [T5V] | 0 kcal/mol |  |  |  |
| DVSGTVCLSALPPEATDTLNLIASDGPFPYSQDGVVFQNRESVLPTQSYGYYHEYTVITPGARTRGVRRIITGEATQEDYYTGDHYATFSLIDQTC [T67V] | 0 kcal/mol | 48.3 °C | -0.1 °C | 88 kcal/mol |
| DVSGTVCLSALPPEAVDTLNLIASDGPFPYSQDGVVFQNRESVLPTQSYGYYHEYTVITPGARTRGTRRIITGEATQEDYYTGDHYATFSLIDQTC [T16V] | -0.3 kcal/mol | 49.4 °C | 1 °C | 88 kcal/mol |
| DVSGTVCLSALPPEATDTLNLIASDGPFPYSQDGVTFQNRESVLPTQSYGYYHEYTVITPGARTRGTRRIITGEATQEDYYTGDHYATFSLIDQTC [V36T] | 1.3 kcal/mol | 43.8 °C | -4.6 °C | 88 kcal/mol |
| DVSGTVCLSALPPEATDTLNLIASDGPFPYSQDGVVFQNRESTLPTQSYGYYHEYTVITPGARTRGTRRIITGEATQEDYYTGDHYATFSLIDQTC [V43T] | 0.5 kcal/mol | 46.8 °C | -1.6 °C | 93 kcal/mol |
| DVSGTVCLSALPPEATDVLNLIASDGPFPYSQDGVVFQNRESVLPTQSYGYYHEYTVITPGARTRGTRRIITGEATQEDYYTGDHYATFSLIDQTC [T18V] | 1.4 kcal/mol | 43.7 °C | -4.7 °C | 80 kcal/mol |
| DVSGTVCLSALPPEATDTLNLIASDGPFPYSQDGVVFQNRESVLPTQSYGYYHEYTVITPGARTRGTRRIIVGEATQEDYYTGDHYATFSLIDQTC [T72V] | 0.2 kcal/mol | 47.6 °C | -0.8 °C | 91 kcal/mol |
| DVSGTVCLSALPPEATDTLNLIASDGPFPYSQDGVVFQNRESVLPTQSYGYYHEYTTITPGARTRGTRRIITGEATQEDYYTGDHYATFSLIDQTC [V57T] | 4.4 kcal/mol | 33.4 °C | -15 °C | 74 kcal/mol |
| DTSGTVCLSALPPEATDTLNLIASDGPFPYSQDGVVFQNRESVLPTQSYGYYHEYTVITPGARTRGTRRIITGEATQEDYYTGDHYATFSLIDQTC [V2T] | 0.9 kcal/mol | 45.2 °C | -3.2 °C | 86 kcal/mol |
| DVSGTVCLSALPPEATDTLNLIASDGPFPYSQDGVVFQNRESVLPTQSYGYYHEYVVITPGARTRGTRRIITGEATQEDYYTGDHYATFSLIDQTC [T56V] | 1.9 kcal/mol | 42.1 °C | -6.3 °C | 85 kcal/mol |
| DVSGTVCLSALPPEATDTLNLIASDGPFPYSQDGVVFQNRESVLPTQSYGYYHEYTVIVPGARTRGTRRIITGEATQEDYYTGDHYATFSLIDQTC [T59V] | 1.7 kcal/mol | 42.8 °C | -5.6 °C | 81 kcal/mol |
| DVSGTVCLSALPPEATDTLNLIASDGPFPYSQDGVVFQNRESVLPTQSYGYYHEYTVITPGARTRGTRRIITGEATQEDYYVGDHYATFSLIDQTC [T82V] | 1.7 kcal/mol | 42.7 °C | -5.7 °C | 81 kcal/mol |
